Experimental findings from patent US20180140673A1 are described below.

The target of experiment [1] is FGFR1c receptor/BKL complex on differentiated mouse 3T3-L1 adipocytes (mouse) (UniProt P16092). The experiment can be described thus: cell-based or functional assay.
Experiment [2] has as its target FGF receptor/BKL complex on HEK293 cells overexpressing human beta-klotho (BKL) (human) (UniProt Q86Z14). Nature of the experiment: cell-based or functional assay.

Chain of FGF receptor/BKL complex on HEK293 cells overexpressing human beta-klotho (BKL) (human) (Q86Z14 whole entry, one chain of several): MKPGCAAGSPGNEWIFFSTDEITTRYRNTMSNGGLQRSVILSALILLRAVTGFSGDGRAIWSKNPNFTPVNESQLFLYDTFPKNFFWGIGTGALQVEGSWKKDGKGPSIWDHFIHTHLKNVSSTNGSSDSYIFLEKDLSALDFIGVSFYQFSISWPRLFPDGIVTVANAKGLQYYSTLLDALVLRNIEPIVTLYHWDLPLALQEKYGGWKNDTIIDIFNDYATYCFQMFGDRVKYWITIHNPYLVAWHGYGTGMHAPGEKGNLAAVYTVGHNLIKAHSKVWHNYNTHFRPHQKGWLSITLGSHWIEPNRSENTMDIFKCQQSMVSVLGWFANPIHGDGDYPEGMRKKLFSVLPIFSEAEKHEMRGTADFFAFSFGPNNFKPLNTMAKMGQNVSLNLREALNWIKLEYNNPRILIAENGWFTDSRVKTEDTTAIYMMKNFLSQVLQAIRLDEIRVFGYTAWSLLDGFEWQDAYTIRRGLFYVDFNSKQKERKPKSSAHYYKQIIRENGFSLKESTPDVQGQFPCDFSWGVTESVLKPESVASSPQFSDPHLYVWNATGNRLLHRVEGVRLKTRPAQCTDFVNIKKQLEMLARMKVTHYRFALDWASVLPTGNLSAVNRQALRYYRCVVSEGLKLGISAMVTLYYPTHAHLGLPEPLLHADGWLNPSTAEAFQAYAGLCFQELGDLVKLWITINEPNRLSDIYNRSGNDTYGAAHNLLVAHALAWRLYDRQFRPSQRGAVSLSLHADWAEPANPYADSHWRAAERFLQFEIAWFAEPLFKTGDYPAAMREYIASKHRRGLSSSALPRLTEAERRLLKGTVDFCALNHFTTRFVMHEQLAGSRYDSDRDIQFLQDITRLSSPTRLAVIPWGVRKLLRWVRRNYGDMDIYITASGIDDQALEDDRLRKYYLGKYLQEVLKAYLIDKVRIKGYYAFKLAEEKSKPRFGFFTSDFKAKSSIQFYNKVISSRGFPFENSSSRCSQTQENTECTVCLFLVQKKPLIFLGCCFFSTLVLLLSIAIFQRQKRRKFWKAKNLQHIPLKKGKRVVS
Chain of FGFR1c receptor/BKL complex on differentiated mouse 3T3-L1 adipocytes (mouse) (P16092 22-822, chain 1 of 2): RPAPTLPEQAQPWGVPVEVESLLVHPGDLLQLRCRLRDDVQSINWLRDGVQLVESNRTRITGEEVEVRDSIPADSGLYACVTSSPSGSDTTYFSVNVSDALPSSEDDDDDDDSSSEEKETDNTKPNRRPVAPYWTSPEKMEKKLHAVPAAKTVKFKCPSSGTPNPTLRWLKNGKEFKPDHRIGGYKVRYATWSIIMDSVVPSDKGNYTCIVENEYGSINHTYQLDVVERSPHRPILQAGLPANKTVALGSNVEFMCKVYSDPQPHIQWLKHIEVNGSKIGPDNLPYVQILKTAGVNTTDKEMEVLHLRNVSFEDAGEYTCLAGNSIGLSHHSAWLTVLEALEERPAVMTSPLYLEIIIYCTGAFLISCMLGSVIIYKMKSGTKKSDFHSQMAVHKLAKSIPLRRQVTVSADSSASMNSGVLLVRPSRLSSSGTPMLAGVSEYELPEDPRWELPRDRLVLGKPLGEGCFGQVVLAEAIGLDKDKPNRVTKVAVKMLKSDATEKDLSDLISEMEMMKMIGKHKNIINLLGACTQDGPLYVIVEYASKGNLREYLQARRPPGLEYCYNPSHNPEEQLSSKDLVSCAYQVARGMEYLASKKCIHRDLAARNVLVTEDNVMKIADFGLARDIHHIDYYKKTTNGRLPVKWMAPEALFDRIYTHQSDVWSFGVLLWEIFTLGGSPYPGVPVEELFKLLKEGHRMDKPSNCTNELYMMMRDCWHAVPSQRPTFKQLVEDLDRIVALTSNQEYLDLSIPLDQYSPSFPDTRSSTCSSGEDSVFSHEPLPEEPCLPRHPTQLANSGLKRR
Chain of FGFR1c receptor/BKL complex on differentiated mouse 3T3-L1 adipocytes (mouse) (Q99N32 whole entry, chain 2 of 2, further chain): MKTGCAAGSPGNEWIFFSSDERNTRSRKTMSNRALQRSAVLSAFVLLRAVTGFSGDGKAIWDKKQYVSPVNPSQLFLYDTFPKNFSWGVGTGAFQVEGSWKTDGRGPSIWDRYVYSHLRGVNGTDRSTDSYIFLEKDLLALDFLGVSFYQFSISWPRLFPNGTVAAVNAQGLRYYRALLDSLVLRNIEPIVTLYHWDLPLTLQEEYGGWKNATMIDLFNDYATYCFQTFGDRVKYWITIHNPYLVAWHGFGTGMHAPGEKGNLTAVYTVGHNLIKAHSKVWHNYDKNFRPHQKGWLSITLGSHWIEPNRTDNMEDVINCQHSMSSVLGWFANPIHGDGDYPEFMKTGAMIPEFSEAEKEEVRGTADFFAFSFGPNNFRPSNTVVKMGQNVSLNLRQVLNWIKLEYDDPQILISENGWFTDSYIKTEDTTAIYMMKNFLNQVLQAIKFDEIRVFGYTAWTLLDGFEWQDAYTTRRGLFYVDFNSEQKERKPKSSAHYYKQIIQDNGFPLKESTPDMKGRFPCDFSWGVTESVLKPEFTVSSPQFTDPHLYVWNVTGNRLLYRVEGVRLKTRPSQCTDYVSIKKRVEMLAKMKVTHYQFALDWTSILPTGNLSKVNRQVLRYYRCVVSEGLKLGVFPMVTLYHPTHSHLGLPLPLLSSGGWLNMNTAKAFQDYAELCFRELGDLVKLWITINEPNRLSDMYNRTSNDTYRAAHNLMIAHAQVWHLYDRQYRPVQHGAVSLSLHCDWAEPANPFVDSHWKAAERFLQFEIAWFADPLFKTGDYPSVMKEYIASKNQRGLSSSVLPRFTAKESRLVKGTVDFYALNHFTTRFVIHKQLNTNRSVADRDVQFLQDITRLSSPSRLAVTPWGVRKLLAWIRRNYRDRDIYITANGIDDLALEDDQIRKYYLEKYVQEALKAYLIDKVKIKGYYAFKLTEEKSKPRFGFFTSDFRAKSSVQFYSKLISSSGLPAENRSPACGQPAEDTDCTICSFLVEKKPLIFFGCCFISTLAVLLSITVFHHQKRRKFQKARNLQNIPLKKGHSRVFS

In experiment [1], “S{Beta-181}-[2-[2-[[2-[2-[2-[[2-[2-[2-[[(4S)-4-carboxy-4-(15-carboxypentadecanoyl-amino)butanoyl]amino]ethoxy]ethoxy]acetyl]amino]ethoxy]ethoxy]acetyl]amino]-ethylamino]-2-oxoethyl]-Ala[Gln121,Leu168,Cys181]FGF21 (from UniProt Q9NSA1 29-208) (ligand)” returned a Glucose uptake EC50 (nM), 3T3-L1 adipocytes of 31 nM and a Glucose uptake Emax (%), 3T3-L1 adipocytes of 61%. In addition, in experiment [2], the EC50 (0.1% HSA) (nM), pERK, HEK293/BKL cells came to 72 nM and the EC50 (nM), pERK, HEK293/BKL cells amounted to 55 nM.
For “S{Beta-181}-[2-[2-[[2-[2-[2-[[2-[2-[2-[[(4S)-4-carboxy-4-(17-carboxyheptadecanoyl-amino)butanoyl]amino]ethoxy]ethoxy]acetyl]amino]ethoxy]ethoxy]acetyl]amino]-ethylamino]-2-oxoethyl]-Ala[Gln121,Leu168,Cys181]FGF21 (from UniProt Q9NSA1 29-208) (ligand)”, in that order: 56 nM, 73%, 170 nM and 42 nM.
In experiment [1], “S{Beta-181}-[2-[2-[[2-[2-[2-[[2-[2-[2-[[(4S)-4-carboxy-4-(19-carboxynonadecanoyl-amino)butanoyl]amino]ethoxy]ethoxy]acetyl]amino]ethoxy]ethoxy]acetyl]amino]-ethylamino]-2-oxoethyl]-Ala[Gln121,Leu168,Cys181]FGF21 (from UniProt Q9NSA1 29-208) (ligand)” showed a Glucose uptake EC50 (nM), 3T3-L1 adipocytes of 410 nM and a Glucose uptake Emax (%), 3T3-L1 adipocytes of 57%. In experiment [2], this substance returned an EC50 (0.1% HSA) (nM), pERK, HEK293/BKL cells of 434 nM and an EC50 (nM), pERK, HEK293/BKL cells of 58 nM.
As to “{Beta-178}-[2-[2-[[2-[2-[2-[[2-[2-[2-[[(4S)-4-carboxy-4-(15-carboxypentadecanoyl-amino)butanoyl]amino]ethoxy]ethoxy]acetyl]amino]ethoxy]ethoxy]acetyl]amino]-ethylamino]-2-oxoethyl]-Ala[Gln121,Leu168,Cys178]FGF21 (from UniProt Q9NSA1 29-209) (ligand)”, in experiment [1], the Glucose uptake EC50 (nM), 3T3-L1 adipocytes is 186 nM and the Glucose uptake Emax (%), 3T3-L1 adipocytes came out at 59%. In experiment [2], the EC50 (0.1% HSA) (nM), pERK, HEK293/BKL cells was 137 nM and the EC50 (nM), pERK, HEK293/BKL cells came to 167 nM.
